Data: US20090036382A1, “TGF-Beta Modulators and Use Thereof” (Universita' Degli Studi Di Padova, priority 2006, published 2009)

What was measured:
[1] = tested on: TGF-β activated p15 promoter; assay: p15-lux luciferase reporter in MEF primary cultures from wild type and emilin1 -/- mice; format: cell-based, mouse; settings: FIG. 3A, 3B
Excerpt: MEF primary cultures were transfected with plasmid p15-lux (p15-luciferase) (Li et al., 1995) driving transcription of the luciferase marker gene under control of the p15^INK4B gene promoter. Since the p15 promoter is activated by TGF-β (i.e. p15 is a TGF-β target gene), the presence of the growth factor induces higher luciferase levels, which can be measured with a luminometer.

pro TGF-β1 = assay: CAGA12-lux luciferase reporter in HEK293T cells co-transfected with pro TGF-β1 vector; format: cell-based, human; settings: for Effect on luciferase expression induced by pro TGF-β1: CAGA12-lux, co-transfection with pro TGF-β1 vector, FIG. 2B, 2C
Excerpt: • The construct for emilin 1 expression was engineered in pCS2 vector (Rupp R. A. et al., 1994, Genes Dev 8, 1311-1323) (for a physical map of the vector, see the site faculty.washington.edu/rtmoon/pcs2+.html) as described (Zanetti M. et al., 2004, Mol Cell Biol 24, 638-650); the vector used for proTGF-β expression in MEF and HEK293T cells is pCDNA3.1 (Invitrogen). Vectors containing the coding sequence for human pro TGF-β are described in Young and Murphy-Ullrich, 2004 (Young and Murphy-Ullrich, 2004, J Biol Chem 279, 38032-38039). The human pro TGF-β cDNA sequence is reported in the data bank (NP_000660; protein 000651). • The vector for Furin/SPC 1 expression is pCDNA3.1 (Invitrogen) • p15 and CAGA 12 promoter fragments are described in Jonk L. J. et al., 1998, J Biol Chem 273, 21145-21152 […]. • Constructs containing Flag sequences are described in Young G. D and Murphy-Ullrich J E, 2004, J Biol Chem 279, 38032-38039. • Constructs containing the Flag epitope (e.g. Flag-EMI-domain-GPI) were prepared as described in Chubet R G et al. Biotechniques 1996; 20(1):136-141 and detected by anti-Flag antibody (Kodak Inc.). • Constructs containing the GPI anchor were prepared as described in the Manual “Current Protocols in Cell Biology” Howard R. Petty Wayne State University, Detroit, Mich.; Juan S. Bonifacino, Mary Dasso, Joe B. Harford, Jennifer Lippincott-Schwartz, and Kenneth M. Yamada (eds.), Copyright C 2003 John Wiley & Sons, Inc. (GPI-anchor). In the construct Flag-EMI domain-GPI, the Flag sequence was inserted at the N-terminus after the signal peptide, while the GPI-anchor sequence was placed at the COOH-terminal end. • The construct emilin 1-KDEL was obtained by inserting the KDEL coding sequence described by Munro S., and Pelham, H. R., 1987, Cell 48, 899-907 upstream the emilin 1 STOP codon. • The construct containing the type II TGF-β receptor with HA epitope was described in Wrana J. L. et al., 1994, Nature 370, 341-347. • supplier of the drugs used: SP600125 (Calbiochem), SB431542 (Tocris). • Purified recombinant LAP and TGF-β1 proteins were purchased from (R&D Systems)
To verify how emilin or the EMI domain can contrast TGF-β1 activity independently from receptor binding, HEK293T cells were transfected with a construct coding luciferase placed under control of a TGF-β activated promoter: CAGA12-lux (Jonk et al., 1998) alone or in combination with a emilin1 expression vector (500 ng) as shown in FIG. 2B. After transfection, cells were treated (black bar) or not treated (white bar) with 5 ng/ml recombinant TGF-1 (lanes 1 and 2). Column bars from 3 to 6 report luciferase expression values in experiments with cells co-transfected with the expression vector for emilin1 (or EMI-domain or emilin1ΔEMI) alone (white bars) or in combination with the vector encoding pro TGF-β1 (black bars). Values show the mean±st. dev.
As further validation of the above observations, HEK293T cells were cotransfected with expression plasmids carrying the cDNAs shown in the summary scheme above the figure, along with CAGA12-lux and CMV-lacZ constructs, and luciferase expression levels were measured.

[2] = target: T1, pro TGF-β1 (human TGF-β1 precursor) (human, UniProt P01137 30-390); assay: co-immunoprecipitation with anti-Flag antibodies from HEK293T cell extracts, western blot with anti-LAP antibodies
T1 construct: Expressed from pCDNA3.1 in HEK293T cells; also called TGF-β precursor; Flag-proTGF-β1
T1 sequence (P01137 30-390): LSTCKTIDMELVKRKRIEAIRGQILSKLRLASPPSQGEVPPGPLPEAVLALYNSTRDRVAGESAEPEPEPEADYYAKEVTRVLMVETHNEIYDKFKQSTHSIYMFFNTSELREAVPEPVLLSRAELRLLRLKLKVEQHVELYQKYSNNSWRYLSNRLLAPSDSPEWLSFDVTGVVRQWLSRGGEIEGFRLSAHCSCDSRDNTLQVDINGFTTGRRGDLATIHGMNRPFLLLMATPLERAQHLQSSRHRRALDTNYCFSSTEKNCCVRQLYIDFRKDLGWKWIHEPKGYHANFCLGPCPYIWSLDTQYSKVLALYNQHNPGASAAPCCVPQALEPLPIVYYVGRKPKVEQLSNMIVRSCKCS
Procedure: To verify whether TGF-β or its precursor is the emilin target, HEK293T cells were transfected with a plasmid encoding pro TGF-β1 alone or with an expression plasmid for Flag-EMI domain-GPI. Cell extracts were prepared and subjected to the immunoprecipitation procedure with anti-Flag antibodies, as described in example 2. Immunoprecipitates were subjected to SDS-PAGE and Western blotting (WB) with anti-LAP antibodies.

Molecule | Effect on luciferase expression induced by pro TGF-β1 (pro TGF-β1) | also measured
NC(=O)c1ccc(-c2nc(-c3ccc4c(c3)OCO4)c(-c3ccccn3)[nH]2)cc1 [SB431542] |  | p15-lux transcriptional response in normal versus emilin1 -/- MEF cells after drug treatment [1]: a similar response is measured in normal and mutant cells
emilin 2: emilin family protein, GenBank NP-114437 | antagonize TGF-β activity at the of pro-TGF-β level | 
multimerin 2: emilin family protein produced by endothelial cells, GenBank NP—079032 (protein) QASSTSLSDLQSSRTPGVWKAEAEDTGKDPVGRNWCPYPMSKLVTLLALCKTEKFLIHSQQPCPQGAPDCQKVKVMYRMAHKPVYQVKQKVLTSLAWRCCPGYTGPNCEHHDSMAIPEPADPGDSHQEPQDGPVSFKPGHLAAVINEVEVQQEQQEHLLGDLQNDVHRVADSLPGLWKALPGNLTAAVMEANQTGHEFPDRSLEQVLLPHVDTFLQVHFSPIWRSFNQSLHSLTQAIRNLSLDVEANRQAISRVQDSAVARADFQELGAKFEAKVQENTQRVGQLRQDVEDRLHAQHFTLHRSISELQADVDTKLKRLHKAQEAPGTNGSLVLATPGAGARPEPDSLQARLGQLQRNLSELHMTTARREEELQYTLEDMRATLTRHVDEIKELYSESDETFDQISKVERQVEELQVNHTALRELRVILMEKSLIMEENKEEVERQLLELNLTLQHLQGGHADLIKYVKDCNCQKLYLDLDVIREGQRDATRALEETQVSLDERRQLDGSSLQALQNAVDAVSLAVDAHKAEGERARAATSRLRSQVQALDDEVGALKAAAAEARHEVRQLHSAFAALLEDALRHEAVLAALFGEEVLEEMSEQTPGPLPLSYEQIRVALQDAASGLQEQALGWDELAARVTALEQASEPPRPAEHLEPSHDAGREEAATTALAGLARELQSLSNDVKNVGRCCEAEAGAGAASLNASLHGLHNALFATQRSLEQHQRLFHSLFGNFQGLMEANVSLDLGKLQTMLSRKGKKQQKDLEAPRKRDKKEAEPLVDIRVTGPVPGALGAALWEAGSPVAFYASFSEGTAALQTVKFNTTYINIGSSYFPEHGYFRAPERGVYLFAVSVEFGPGPGTGQLVFGGHHRTPVCTTGQGSGSTATVFAMAELQKGERVWFELTQGSITKRSLSGTAFGGFLMFKT | antagonize TGF-β activity at the of pro-TGF-β level | 
emilin1ΔEMI: emilin protein lacking the EMI-domain, used as control (protein) ASYPPRGFSLYTGSSGALSPGGPQAQIAPRPASSPAPALGPASSTPRPLARPARPNLSGSSAGSPLSGLGGEGPGESEKVQQLEEQVQSLTKELQGLRGVLQGLSGRLAEDVQRAVETAFNGRQQPADAAARPGVHETLNEIQHQLQLLDTRVSTHDQELGHLNNHHGGSSSSGGSRAPAPASAPPGPSEELLRQLEQRLQESCSVCLAGLDGFRRQQQEDRERLRAMEKLLASVEERQRHLAGLAVGRRPPQECCSPELGRRLAELERRLDVVAGSVTVLSGRRGTELGGAAGQGGHPPGYTSLASRLSRLEDRFNSTLGPSEEQEESWPGAPGGLSHWLPAARGRLEQLGGLLANVSGELGGRLDLLEEQVAGAMQACGQLCSGAPGEQDSQVSEILSALERRVLDSEGQLRLVGSGLHTVEAAGEARQATLEGLQEVVGRLQDRVDAQDETAAEFTLRLNLTAARLGQLEGLLQAHGDEGCGACGGVQEELGRLRDGVERCSCPLLPPRGPGAGPGVGGPSRGPLDGFSVFGGSSGSALQALQGELSEVILSFSSLNDSLNELQTTVEGQGADLADLGATKDRIISEINRLQQEATEHATESEERFRGLEEGQAQAGQCPSLEGRLGRLEGVCERLDTVAGGLQGLREGLSRHVAGLWAGLRETNTTSQMQAALLEKLVGGQAGLGRRLGALNSSLQLLEDRLHQLSLKDLTGPAGEAGPPGPPGLQGPPGPAGPPGSPGKDGQEGPIGPPGPQGEQGVEGAPAAPVPQVAFSAALSLPRSEPGTVPFDRVLLNDGGYYDPETGVFTAPLAGRYLLSAVLTGHRHEKVEAVLSRSNQGVARVDSGGYEPEGLENKPVAESQPSPGTLGVFSLILPLQAGDTVCVDLVMGQLAHSEEPLTIFSGALLYGDPELEHA | showed no effect on pro TGF-β | 
Flag-EMI-domain-GPI (emilin-1 EMI domain tagged with the Flag epitope and bound to a GPI anchor) (other, not shown: small tags and cut ends; large carriers, GPI (glycosylphosphatidylinositol) anchor at the COOH-terminal end, Expressed in transfected HEK293T cells and tested in cell extracts; also called EMI-domain-GPI-anchor; GPI anchored EMI domain) RHRNWCAYVVTRTVSCVLEDGVETYVKYQPCAWGQPQCPQSIMYRRFLRPRYRVAYKTVTDMEWRCCQGYGGDDCAE |  | binding result [2]: binds
emilin 1-KDEL: emilin 1 with KDEL sequence inserted upstream the STOP codon; retained intracellularly, not secreted (protein) ASYPPRGFSLYTGSSGALSPGGPQAQIAPRPASRHRNWCAYVVTRTVSCVLEDGVETYVKYQPCAWGQPQCPQSIMYRRFLRPRYRVAYKTVTDMEWRCCQGYGGDDCAESPAPALGPASSTPRPLARPARPNLSGSSAGSPLSGLGGEGPGESEKVQQLEEQVQSLTKELQGLRGVLQGLSGRLAEDVQRAVETAFNGRQQPADAAARPGVHETLNEIQHQLQLLDTRVSTHDQELGHLNNHHGGSSSSGGSRAPAPASAPPGPSEELLRQLEQRLQESCSVCLAGLDGFRRQQQEDRERLRAMEKLLASVEERQRHLAGLAVGRRPPQECCSPELGRRLAELERRLDVVAGSVTVLSGRRGTELGGAAGQGGHPPGYTSLASRLSRLEDRFNSTLGPSEEQEESWPGAPGGLSHWLPAARGRLEQLGGLLANVSGELGGRLDLLEEQVAGAMQACGQLCSGAPGEQDSQVSEILSALERRVLDSEGQLRLVGSGLHTVEAAGEARQATLEGLQEVVGRLQDRVDAQDETAAEFTLRLNLTAARLGQLEGLLQAHGDEGCGACGGVQEELGRLRDGVERCSCPLLPPRGPGAGPGVGGPSRGPLDGFSVFGGSSGSALQALQGELSEVILSFSSLNDSLNELQTTVEGQGADLADLGATKDRIISEINRLQQEATEHATESEERFRGLEEGQAQAGQCPSLEGRLGRLEGVCERLDTVAGGLQGLREGLSRHVAGLWAGLRETNTTSQMQAALLEKLVGGQAGLGRRLGALNSSLQLLEDRLHQLSLKDLTGPAGEAGPPGPPGLQGPPGPAGPPGSPGKDGQEGPIGPPGPQGEQGVEGAPAAPVPQVAFSAALSLPRSEPGTVPFDRVLLNDGGYYDPETGVFTAPLAGRYLLSAVLTGHRHEKVEAVLSRSNQGVARVDSGGYEPEGLENKPVAESQPSPGTLGVFSLILPLQAGDTVCVDLVMGQLAHSEEPLTIFSGALLYGDPELEHAKDEL |  | Luciferase expression stimulated by transfected pro TGF-β (pro TGF-β1; CAGA12-lux and CMV-lacZ, FIG. 6C): abolishes its inhibitory action on the effects of pro TGF-β
